# Assay results from the supplement of paper PMC9112550, “Optimization of the antimicrobial peptide Bac7 by deep mutational scanning” (BMC Biology, 2022).
# Tested on: Escherichia coli TOP10
# Experiment: shrunken log2 fold change of peptide-encoding DNA abundance (4.5 h post-induction vs induction); higher = less antimicrobial activity (less host growth inhibition)
# Details: time post-induction: 4.5 h; library: site-saturation at positions 5, 18, 19, 20
# 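Also: peptides expressed intracellularly from a pBAD plasmid library in pooled LB shake-flask culture, induced with 0.3% L-arabinose, DNA abundance read by NGS, three biological replicates, DESeq2 with apeglm shrinkage.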
row,Sequence,shrunken log2 fold change
1,RRIRVRPPRLPRPRPRPSNMPRP,-0.124
2,RRIRNRPPRLPRPRPRPAEHPRP,-0.201
3,RRIRHRPPRLPRPRPRPLEDPRP,0.0039
4,RRIRGRPPRLPRPRPRPDRIPRP,0.286
5,RRIRRRPPRLPRPRPRPKKVPRP,0.242
6,RRIRPRPPRLPRPRPRPTFGPRP,0.191
7,RRIRTRPPRLPRPRPRPPAHPRP,0.252
8,RRIRPRPPRLPRPRPRPFGTPRP,-0.444
9,RRIRARPPRLPRPRPRPMFCPRP,0.211
10,RRIRKRPPRLPRPRPRPCAQPRP,0.208
11,RRIRWRPPRLPRPRPRPSCAPRP,0.145
12,RRIRFRPPRLPRPRPRPANFPRP,0.151
13,RRIRNRPPRLPRPRPRPATSPRP,-0.214
14,RRIRSRPPRLPRPRPRPLTDPRP,-0.162
15,RRIRYRPPRLPRPRPRPSEMPRP,-0.765
16,RRIRYRPPRLPRPRPRPCKRPRP,-0.0961
17,RRIRFRPPRLPRPRPRPIEEPRP,0.0565
18,RRIRPRPPRLPRPRPRPDHTPRP,0.0191
19,RRIRMRPPRLPRPRPRPVWPPRP,1.07
20,RRIRFRPPRLPRPRPRPHSAPRP,-0.179
21,RRIRGRPPRLPRPRPRPQKCPRP,0.122
22,RRIRWRPPRLPRPRPRPRCWPRP,0.616
23,RRIRQRPPRLPRPRPRPVPHPRP,-0.0417
24,RRIRYRPPRLPRPRPRPESKPRP,-0.859
25,RRIRDRPPRLPRPRPRPDNSPRP,0.0428

row,Sequence,shrunken log2 fold change
1,RRIRRRPPRLPRPRPRPRNQPRP,-0.0577
2,RRIRERPPRLPRPRPRPDQYPRP,-0.0158
3,RRIRPRPPRLPRPRPRPKLIPRP,-0.0783
4,RRIRARPPRLPRPRPRPALVPRP,0.597
5,RRIRIRPPRLPRPRPRPVCHPRP,-0.179
6,RRIRRRPPRLPRPRPRPQMQPRP,-0.205
7,RRIRYRPPRLPRPRPRPRYWPRP,-0.317
8,RRIRYRPPRLPRPRPRPERVPRP,-0.0107
9,RRIRRRPPRLPRPRPRPKGCPRP,0.0288
10,RRIRARPPRLPRPRPRPLCEPRP,0.879
11,RRIRERPPRLPRPRPRPRMKPRP,-0.243
12,RRIRKRPPRLPRPRPRPRSVPRP,0.402
13,RRIRQRPPRLPRPRPRPVWMPRP,-0.00887
14,RRIRERPPRLPRPRPRPTHYPRP,-0.312
15,RRIRDRPPRLPRPRPRPLCHPRP,0.0833
16,RRIRGRPPRLPRPRPRPDHSPRP,-0.0179
17,RRIRERPPRLPRPRPRPMLSPRP,-0.376
18,RRIRYRPPRLPRPRPRPKKIPRP,-0.483
19,RRIRGRPPRLPRPRPRPVEIPRP,0.177
20,RRIRERPPRLPRPRPRPAEPPRP,-0.000777
21,RRIRKRPPRLPRPRPRPWTAPRP,0.00666
22,RRIRWRPPRLPRPRPRPEREPRP,0.295
23,RRIRFRPPRLPRPRPRPQQMPRP,-0.0245
24,RRIRRRPPRLPRPRPRPHNVPRP,-0.916
25,RRIRQRPPRLPRPRPRPEELPRP,-0.0362

row,Sequence,shrunken log2 fold change
1,RRIRGRPPRLPRPRPRPSIPPRP,-0.137
2,RRIRTRPPRLPRPRPRPITLPRP,-0.162
3,RRIRFRPPRLPRPRPRPWWNPRP,-0.26
4,RRIRDRPPRLPRPRPRPKLNPRP,0.0523
5,RRIRMRPPRLPRPRPRPWRCPRP,0.0452
6,RRIRKRPPRLPRPRPRPWVLPRP,0.0941
7,RRIRSRPPRLPRPRPRPGMRPRP,0.789
8,RRIRERPPRLPRPRPRPAAVPRP,0.057
9,RRIRLRPPRLPRPRPRPQVLPRP,-0.0429
10,RRIRLRPPRLPRPRPRPVQIPRP,0.364
11,RRIRHRPPRLPRPRPRPELTPRP,0.054
12,RRIRPRPPRLPRPRPRPEREPRP,0.49
13,RRIRNRPPRLPRPRPRPNYYPRP,-0.473
14,RRIRDRPPRLPRPRPRPKLIPRP,0.088
15,RRIRQRPPRLPRPRPRPHWTPRP,-0.0125
16,RRIRTRPPRLPRPRPRPPNEPRP,0.207
17,RRIRRRPPRLPRPRPRPNPGPRP,-0.035
18,RRIRQRPPRLPRPRPRPVLPPRP,0.0127
19,RRIRPRPPRLPRPRPRPTVYPRP,-0.296
20,RRIRYRPPRLPRPRPRPHHMPRP,-0.311
21,RRIRMRPPRLPRPRPRPFDMPRP,-0.192
22,RRIRWRPPRLPRPRPRPHIEPRP,0.0376
23,RRIRCRPPRLPRPRPRPPGHPRP,0.422
24,RRIRLRPPRLPRPRPRPQHQPRP,-0.261
25,RRIRRRPPRLPRPRPRPYRPPRP,-0.0416

row,Sequence,shrunken log2 fold change
1,RRIRMRPPRLPRPRPRPQGHPRP,0.0616
2,RRIRFRPPRLPRPRPRPKVWPRP,-0.249
3,RRIRYRPPRLPRPRPRPMKVPRP,0.0135
4,RRIRFRPPRLPRPRPRPASEPRP,0.21
5,RRIRKRPPRLPRPRPRPLSFPRP,-0.191
6,RRIRFRPPRLPRPRPRPECFPRP,0.0331
7,RRIRIRPPRLPRPRPRPYLIPRP,-1.6
8,RRIRRRPPRLPRPRPRPGAEPRP,2.68
9,RRIRQRPPRLPRPRPRPIDWPRP,1.59e-05
10,RRIRGRPPRLPRPRPRPQKNPRP,0.368
11,RRIRNRPPRLPRPRPRPAYDPRP,-0.119
12,RRIRRRPPRLPRPRPRPCNWPRP,-0.0134
13,RRIRPRPPRLPRPRPRPWPDPRP,-0.149
14,RRIRVRPPRLPRPRPRPMAVPRP,-0.0191
15,RRIRRRPPRLPRPRPRPGMMPRP,0.257
16,RRIRERPPRLPRPRPRPALHPRP,0.247
17,RRIRRRPPRLPRPRPRPGPYPRP,0.18
18,RRIRQRPPRLPRPRPRPWYWPRP,-0.468
19,RRIRDRPPRLPRPRPRPPEIPRP,0.487
20,RRIRVRPPRLPRPRPRPNSAPRP,0.198
21,RRIRKRPPRLPRPRPRPMKIPRP,0.291
22,RRIRTRPPRLPRPRPRPGSRPRP,0.365
23,RRIRLRPPRLPRPRPRPNVWPRP,0.346
24,RRIRERPPRLPRPRPRPWSHPRP,-0.168
25,RRIRMRPPRLPRPRPRPQAMPRP,0.318

row,Sequence,shrunken log2 fold change
1,RRIRLRPPRLPRPRPRPHSKPRP,-0.129
2,RRIRFRPPRLPRPRPRPDALPRP,-0.0978
3,RRIRYRPPRLPRPRPRPPYTPRP,-0.94
4,RRIRPRPPRLPRPRPRPKMFPRP,0.149
5,RRIRLRPPRLPRPRPRPYCCPRP,-1.03
6,RRIRKRPPRLPRPRPRPPKQPRP,0.202
7,RRIRERPPRLPRPRPRPPCSPRP,-0.258
8,RRIRVRPPRLPRPRPRPIIRPRP,-0.199
9,RRIRARPPRLPRPRPRPMVPPRP,0.0221
10,RRIRMRPPRLPRPRPRPTAAPRP,2.79
11,RRIRSRPPRLPRPRPRPPYNPRP,-0.602
12,RRIRLRPPRLPRPRPRPRWVPRP,0.237
13,RRIRMRPPRLPRPRPRPCFNPRP,-0.000544
14,RRIRNRPPRLPRPRPRPRDHPRP,-0.219
15,RRIRARPPRLPRPRPRPASGPRP,1.35
16,RRIRQRPPRLPRPRPRPDTCPRP,0.0121
17,RRIRCRPPRLPRPRPRPNEQPRP,0.256
18,RRIRTRPPRLPRPRPRPHNRPRP,-0.0489
19,RRIRARPPRLPRPRPRPRWPPRP,0.666
20,RRIRVRPPRLPRPRPRPRNRPRP,-0.338
21,RRIRWRPPRLPRPRPRPVMAPRP,0.171
22,RRIRIRPPRLPRPRPRPWVEPRP,-0.211
23,RRIRARPPRLPRPRPRPPGTPRP,0.898
24,RRIRGRPPRLPRPRPRPIYGPRP,-0.141
25,RRIRERPPRLPRPRPRPQMSPRP,-0.114

row,Sequence,shrunken log2 fold change
1,RRIRRRPPRLPRPRPRPCLWPRP,0.407
2,RRIRPRPPRLPRPRPRPLHHPRP,-0.0808
3,RRIRRRPPRLPRPRPRPCFGPRP,0.0921
4,RRIRNRPPRLPRPRPRPHMPPRP,-0.0765
5,RRIRQRPPRLPRPRPRPHYRPRP,-0.0839
6,RRIRVRPPRLPRPRPRPPSQPRP,0.125
7,RRIRIRPPRLPRPRPRPSHNPRP,-1.06
8,RRIRPRPPRLPRPRPRPIVHPRP,-0.155
9,RRIRRRPPRLPRPRPRPWCNPRP,-0.543
10,RRIRHRPPRLPRPRPRPQIIPRP,-0.634
11,RRIRDRPPRLPRPRPRPGENPRP,-0.00211
12,RRIRERPPRLPRPRPRPTCPPRP,-0.103
13,RRIRWRPPRLPRPRPRPQDIPRP,-0.352
14,RRIRQRPPRLPRPRPRPFKEPRP,0.343
15,RRIRWRPPRLPRPRPRPFLRPRP,0.0966
16,RRIRGRPPRLPRPRPRPNHEPRP,0.0434
17,RRIRWRPPRLPRPRPRPLIDPRP,0.00313
18,RRIRMRPPRLPRPRPRPHYFPRP,-0.0364
19,RRIRQRPPRLPRPRPRPSPFPRP,0.0122
20,RRIRWRPPRLPRPRPRPKRCPRP,0.0577
21,RRIRPRPPRLPRPRPRPEWEPRP,0.304
22,RRIRKRPPRLPRPRPRPDWVPRP,0.0285
23,RRIRERPPRLPRPRPRPGKYPRP,-0.17
24,RRIRDRPPRLPRPRPRPTIDPRP,0.607
25,RRIRNRPPRLPRPRPRPFCFPRP,0.567
